Experimental data from the supplement of paper PMC9112550, “Optimization of the antimicrobial peptide Bac7 by deep mutational scanning” (BMC Biology, 2022).

system: Escherichia coli TOP10; experiment: shrunken log2 fold change of peptide-encoding DNA abundance (4.5 h post-induction vs induction); higher = less antimicrobial activity (less host growth inhibition); conditions: time post-induction: 4.5 h; library: site-saturation at positions 5, 18, 19, 20
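Note: peptides expressed intracellularly from a pBAD plasmid library in pooled LB shake-flask culture, induced with 0.3% L-arabinose, DNA abundance read by NGS, three biological replicates, DESeq2 with apeglm shrinkage.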

Row | Sequence | shrunken log2 fold change
1 | RRIRDRPPRLPRPRPRPQTFPRP | 0.0361
2 | RRIRDRPPRLPRPRPRPQTSPRP | 0.117
3 | RRIRDRPPRLPRPRPRPQWDPRP | 0.101
4 | RRIRDRPPRLPRPRPRPQWRPRP | 0.21
5 | RRIRDRPPRLPRPRPRPQWTPRP | 0.448
6 | RRIRDRPPRLPRPRPRPQWYPRP | -0.45
7 | RRIRDRPPRLPRPRPRPQYAPRP | -0.101
8 | RRIRDRPPRLPRPRPRPQYRPRP | -0.0135
9 | RRIRDRPPRLPRPRPRPRASPRP | 0.214
10 | RRIRDRPPRLPRPRPRPRAVPRP | 0.764
11 | RRIRDRPPRLPRPRPRPRDIPRP | 0.0838
12 | RRIRDRPPRLPRPRPRPREIPRP | -0.00904
13 | RRIRDRPPRLPRPRPRPREKPRP | 0.342
14 | RRIRDRPPRLPRPRPRPREMPRP | 0.00815
15 | RRIRDRPPRLPRPRPRPRFCPRP | 0.341
16 | RRIRDRPPRLPRPRPRPRGKPRP | -0.0455
17 | RRIRDRPPRLPRPRPRPRHFPRP | -0.0107
18 | RRIRDRPPRLPRPRPRPRIYPRP | -0.173
19 | RRIRDRPPRLPRPRPRPRKQPRP | -0.0319
20 | RRIRDRPPRLPRPRPRPRLCPRP | 0.265
21 | RRIRDRPPRLPRPRPRPRMEPRP | -0.239
22 | RRIRDRPPRLPRPRPRPRMQPRP | -0.196
23 | RRIRDRPPRLPRPRPRPRNTPRP | -0.205
24 | RRIRDRPPRLPRPRPRPRNYPRP | -0.313
25 | RRIRDRPPRLPRPRPRPRQYPRP | -0.332

Row | Sequence | shrunken log2 fold change
26 | RRIRDRPPRLPRPRPRPRREPRP | 0.281
27 | RRIRDRPPRLPRPRPRPRRFPRP | 0.212
28 | RRIRDRPPRLPRPRPRPRTHPRP | -0.188
29 | RRIRDRPPRLPRPRPRPRYHPRP | -0.0202
30 | RRIRDRPPRLPRPRPRPRYKPRP | -0.202
31 | RRIRDRPPRLPRPRPRPRYYPRP | -0.175
32 | RRIRDRPPRLPRPRPRPSAGPRP | 0.67
33 | RRIRDRPPRLPRPRPRPSASPRP | 0.259
34 | RRIRDRPPRLPRPRPRPSCFPRP | 0.126
35 | RRIRDRPPRLPRPRPRPSCPPRP | 0.00741
36 | RRIRDRPPRLPRPRPRPSDCPRP | -0.482
37 | RRIRDRPPRLPRPRPRPSFAPRP | 0.263
38 | RRIRDRPPRLPRPRPRPSGGPRP | 0.356
39 | RRIRDRPPRLPRPRPRPSGSPRP | -0.00469
40 | RRIRDRPPRLPRPRPRPSGYPRP | 0.0153
41 | RRIRDRPPRLPRPRPRPSHPPRP | -0.425
42 | RRIRDRPPRLPRPRPRPSMTPRP | 0.237
43 | RRIRDRPPRLPRPRPRPSPDPRP | 0.312
44 | RRIRDRPPRLPRPRPRPSPIPRP | 0.0798
45 | RRIRDRPPRLPRPRPRPSPSPRP | -0.018
46 | RRIRDRPPRLPRPRPRPSQEPRP | 0.111
47 | RRIRDRPPRLPRPRPRPSRAPRP | 0.156
48 | RRIRDRPPRLPRPRPRPSRCPRP | 0.346
49 | RRIRDRPPRLPRPRPRPSSMPRP | -0.292
50 | RRIRDRPPRLPRPRPRPSSVPRP | -0.0994

Row | Sequence | shrunken log2 fold change
51 | RRIRDRPPRLPRPRPRPSTDPRP | 0.0145
52 | RRIRDRPPRLPRPRPRPSVEPRP | 1.45
53 | RRIRDRPPRLPRPRPRPSVSPRP | 0.0104
54 | RRIRDRPPRLPRPRPRPSYMPRP | -0.111
55 | RRIRDRPPRLPRPRPRPTAGPRP | 0.534
56 | RRIRDRPPRLPRPRPRPTASPRP | 0.381
57 | RRIRDRPPRLPRPRPRPTCEPRP | 0.705
58 | RRIRDRPPRLPRPRPRPTCIPRP | 0.0607
59 | RRIRDRPPRLPRPRPRPTCKPRP | 0.0657
60 | RRIRDRPPRLPRPRPRPTEFPRP | -0.0306
61 | RRIRDRPPRLPRPRPRPTGFPRP | 0.0286
62 | RRIRDRPPRLPRPRPRPTHWPRP | 0.192
63 | RRIRDRPPRLPRPRPRPTICPRP | -0.232
64 | RRIRDRPPRLPRPRPRPTLEPRP | 1.06
65 | RRIRDRPPRLPRPRPRPTMRPRP | 1.3
66 | RRIRDRPPRLPRPRPRPTPMPRP | 0.234
67 | RRIRDRPPRLPRPRPRPTPNPRP | 0.272
68 | RRIRDRPPRLPRPRPRPTPVPRP | 0.405
69 | RRIRDRPPRLPRPRPRPTQCPRP | -0.0857
70 | RRIRDRPPRLPRPRPRPTRRPRP | 0.206
71 | RRIRDRPPRLPRPRPRPTRTPRP | 0.246
72 | RRIRDRPPRLPRPRPRPTSWPRP | 0.989
73 | RRIRDRPPRLPRPRPRPTTQPRP | 0.831
74 | RRIRDRPPRLPRPRPRPTTTPRP | 0.654
75 | RRIRDRPPRLPRPRPRPTVCPRP | 0.662
